This assay has as its target recombinant full-length human BLM with a C-terminal His6-tag (human, UniProt P54132 1-1417). Description: co-IP.

Sequence of recombinant full-length human BLM with a C-terminal His6-tag (P54132 whole entry): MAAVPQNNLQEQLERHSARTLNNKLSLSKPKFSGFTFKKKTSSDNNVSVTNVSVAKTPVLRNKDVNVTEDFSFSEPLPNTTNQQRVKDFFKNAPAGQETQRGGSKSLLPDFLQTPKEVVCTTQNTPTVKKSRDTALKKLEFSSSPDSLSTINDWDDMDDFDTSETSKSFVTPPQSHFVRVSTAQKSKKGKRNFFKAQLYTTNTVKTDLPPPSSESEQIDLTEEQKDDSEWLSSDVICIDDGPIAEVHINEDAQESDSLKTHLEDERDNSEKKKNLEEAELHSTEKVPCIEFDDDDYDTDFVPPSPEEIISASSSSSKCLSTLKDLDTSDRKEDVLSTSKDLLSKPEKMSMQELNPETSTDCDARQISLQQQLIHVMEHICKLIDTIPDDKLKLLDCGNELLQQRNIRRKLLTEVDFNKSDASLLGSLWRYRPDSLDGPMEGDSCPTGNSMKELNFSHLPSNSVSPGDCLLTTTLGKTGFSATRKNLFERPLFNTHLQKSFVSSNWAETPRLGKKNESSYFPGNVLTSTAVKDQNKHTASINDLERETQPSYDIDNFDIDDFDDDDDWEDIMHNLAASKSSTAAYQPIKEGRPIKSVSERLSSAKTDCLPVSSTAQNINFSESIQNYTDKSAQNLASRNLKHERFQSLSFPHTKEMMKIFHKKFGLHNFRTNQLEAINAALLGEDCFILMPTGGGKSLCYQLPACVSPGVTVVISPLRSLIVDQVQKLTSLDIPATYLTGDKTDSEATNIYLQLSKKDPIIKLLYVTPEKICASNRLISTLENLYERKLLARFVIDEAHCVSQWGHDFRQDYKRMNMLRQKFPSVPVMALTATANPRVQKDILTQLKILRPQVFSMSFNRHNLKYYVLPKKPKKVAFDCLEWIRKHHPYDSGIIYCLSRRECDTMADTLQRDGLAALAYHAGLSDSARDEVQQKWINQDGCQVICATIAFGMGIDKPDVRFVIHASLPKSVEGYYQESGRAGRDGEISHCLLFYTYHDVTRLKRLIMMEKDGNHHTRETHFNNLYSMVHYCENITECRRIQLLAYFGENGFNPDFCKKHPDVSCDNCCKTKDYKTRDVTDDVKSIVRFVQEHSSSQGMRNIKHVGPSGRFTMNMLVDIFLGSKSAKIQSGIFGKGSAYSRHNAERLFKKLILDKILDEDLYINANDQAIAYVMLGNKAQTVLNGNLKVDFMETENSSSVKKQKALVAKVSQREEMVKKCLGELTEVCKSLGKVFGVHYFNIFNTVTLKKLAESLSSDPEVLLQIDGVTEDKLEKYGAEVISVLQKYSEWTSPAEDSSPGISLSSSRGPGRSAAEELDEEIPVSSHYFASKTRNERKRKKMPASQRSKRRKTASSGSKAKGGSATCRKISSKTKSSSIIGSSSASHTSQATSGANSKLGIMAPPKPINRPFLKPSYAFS

B1: recombinant full length human Mcm6 from wheat germ (natural protein)
chain: MDLAAAAEPGAGSQHLEVRDEVAEKCQKLFLDFLEEFQSSDGEIKYLQLAEELIRPERNTLVVSFVDLEQFNQQLSTTIQEEFYRVYPYLCRALKTFVKDRKEIPLAKDFYVAFQDLPTRHKIRELTSSRIGLLTRISGQVVRTHPVHPELVSGTFLCLDCQTVIRDVEQQFKYTQPNICRNPVCANRRRFLLDTNKSRFVDFQKVRIQETQAELPRGSIPRSLEVILRAEAVESAQAGDKCDFTGTLIVVPDVSKLSTPGARAETNSRVSGVDGYETEGIRGLRALGVRDLSYRLVFLACCVAPTNPRFGGKELRDEEQTAESIKNQMTVKEWEKVFEMSQDKNLYHNLCTSLFPTIHGNDEVKRGVLLMLFGGVPKTTGEGTSLRGDINVCIVGDPSTAKSQFLKHVEEFSPRAVYTSGKASSAAGLTAAVVRDEESHEFVIEAGALMLADNGVCCIDEFDKMDVRDQVAIHEAMEQQTISITKAGVKATLNARTSILAAANPISGHYDRSKSLKQNINLSAPIMSRFDLFFILVDECNEVTDYAIARRIVDLHSRIEESIDRVYSLDDIRRYLLFARQFKPKISKESEDFIVEQYKHLRQRDGSGVTKSSWRITVRQLESMIRLSEAMARMHCCDEVQPKHVKEAFRLLNKSIIRVETPDVNLDQEEEIQMEVDEGAGGINGHADSPAPVNGINGYNEDINQESAPKASLRLGFSEYCRISNLIVLHLRKVEEEEDESALKRSELVNWYLKEIESEIDSEEELINKKRIIEKVIHRLTHYDHVLIELTQAGLKGSTEGSESYEEDPYLVVNPNYLLED
Consider B1, for which the binding result is “binds”.

The values above are taken from paper PMC8421143 (Nucleic Acids Research, 2021).
